Data as given in the supplement of paper PMC12338614.
± gives the uncertainty stated by the source.

B1: library; numbered along this chain (parent)
chain: MEVVDPQQLGMFTEGELMSVGMDTFIHRIDSTEVIYQPRRKRAKLIGKYLMGDLLGEGSYGKVKEVLDSETLCRRAVKILKKKKLRRIPNGEANVKKEIQLLRRLRHKNVIQLVDVLYNEEKQKMYMVMEYCVCGMQEMLDSVPEKRFPVCQAHGYFCQLIDGLEYLHSQGIVHKDIKPGNLLLTTGGTLKISDLGVAEALHPFAADDTCRTSQGSPAFQPPEIANGLDTFSGFKVDIWSAGVTLYNITTGLYPFEGDNIYKLFENIGKGSYAIPGDCGPPLSDLLKGMLEYEPAKRFSIRQIRQHSWFRKKHPPAEAPVPIPPSPDTKDRWRSMTVVPYLEDLHGADEDEDLFDIEDDIIYTQDFTVPGQVPEEEASHNGQRRGLPKAVCMNGTEAAQLSTKSRAEGRAPNPARKACSASSKIRRLSACKQQ

Variants of: B1
Assay: STK11 functional score (HeLa growth suppression), rescaled enrichment; synonymous median = 1, nonsense median = 0 (normalised score)
Conditions: with HeLa; variant type: missense
How it was run: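 The values are functional scores: wild-type-corrected log ratios of post- versus pre-selection abundance, rescaled to synonymous and nonsense medians, merged over codons and replicate transfections, and carrying bootstrapped error. They derive from codon-randomised (POPCode), codon-optimised STK11 libraries that Bxb1 integrated at an AAVS1 landing pad in HeLa, with three transfections for each of three regions. Sequencing of tiled gDNA amplicons ran on NextSeq, at ~2 million reads per tile.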

Row | Variant | STK11 functional score
1 | D343F | 1.32 ± 0.39
2 | H306C | 0.975 ± 0.1
3 | L50G | 0.949 ± 0.24
4 | E199I | 0.977 ± 0.097
5 | D115V | 1.27 ± 0.1
6 | R147G | 1.07 ± 0.086
7 | R297F | -0.355 ± 0.076
8 | V34I | 1.1 ± 0.34
9 | P373M | 1.56 ± 0.17
10 | N181V | -0.181 ± 0.052
11 | R383T | 1.56 ± 0.24
12 | Y118R | 1.04 ± 0.18
13 | R331P | 1.54 ± 0.22
14 | I29F | 0.117 ± 0.076
15 | K329Y | 1.15 ± 0.096
16 | V173Q | 1.46 ± 0.14
17 | I300L | 1.25 ± 0.1
18 | D330S | 1.47 ± 0.28
19 | T336C | 1.27 ± 0.34
20 | I46A | 1.5 ± 0.22
21 | F231I | 1.62 ± 0.17
22 | E407V | 1.38 ± 0.25
23 | S421C | 0.549 ± 0.38
24 | E121N | 1.57 ± 0.23

Row | Variant | STK11 functional score
25 | C418V | 1.62 ± 0.19
26 | M125P | 0.267 ± 0.29
27 | D53L | 0.555 ± 0.21
28 | L113Y | 1.67 ± 0.24
29 | Q7Y | 1.22 ± 0.087
30 | Y60N | 0.674 ± 0.26
31 | R103K | 1.18 ± 0.77
32 | E349G | 0.983 ± 0.3
33 | T13K | 0.0631 ± 0.2
34 | C158A | 1.37 ± 0.59
35 | L263S | 1.18 ± 0.19
36 | R383N | 1.5 ± 0.16
37 | V95A | 1.28 ± 0.19
38 | R74I | 1.15 ± 0.12
39 | P38T | 0.9 ± 0.23
40 | K64P | 0.931 ± 0.21
41 | K296M | 1.32 ± 0.89
42 | S422L | 1.17 ± 0.12
43 | G227Q | 1.26 ± 0.45
44 | K423Q | 0.701 ± 0.61
45 | D258C | 1.16 ± 0.32
46 | A225T | 1.65 ± 0.34
47 | E33N | 1.33 ± 0.15
48 | D229Q | 1.49 ± 0.46

Row | Variant | STK11 functional score
49 | M392W | 0.68 ± 0.21
50 | G251D | 0.751 ± 0.47
51 | E407L | 0.778 ± 0.17
52 | D348H | 1.18 ± 0.6
53 | L353A | 1.56 ± 0.24
54 | V114Y | 1.59 ± 0.21
55 | C278E | 1.66 ± 0.21
56 | P373L | 1.13 ± 0.38
57 | I99R | 0.708 ± 0.16
58 | R331S | 1.32 ± 0.29
59 | V4D | 1.45 ± 0.39
60 | F366V | 1.42 ± 0.54
61 | R40T | 1.68 ± 0.32
62 | D365N | 0.613 ± 0.79
63 | N94R | 1.37 ± 0.14
64 | L80A | 1.21 ± 0.22
65 | V133C | 1.35 ± 0.33
66 | A397C | 1.04 ± 0.15
67 | Q112M | 0.897 ± 0.28
68 | S299F | 0.544 ± 0.1
69 | N94H | 1.35 ± 0.3
70 | M136S | 0.0685 ± 0.09
71 | P280L | 1.32 ± 0.19
72 | R75M | 0.00187 ± 0.29

Row | Variant | STK11 functional score
73 | L184P | 0.189 ± 0.18
74 | L105V | 0.842 ± 0.15
75 | S334Y | 1.55 ± 0.17
76 | K124P | 0.692 ± 0.35
77 | Q382P | 1.35 ± 0.33
78 | E33Y | 1.21 ± 0.2
79 | R87L | 1.18 ± 0.15
80 | K81I | 1.19 ± 0.12
81 | D358A | 1.27 ± 0.15
82 | Y118W | 0.378 ± 0.09
83 | I79Q | 1.51 ± 0.18
84 | E376S | 1.57 ± 0.24
85 | D359W | 1.07 ± 0.22
86 | F354Q | 1.61 ± 0.14
87 | L400A | 1.64 ± 0.3
88 | F231Y | 0.865 ± 0.35
89 | I29M | 0.901 ± 0.47
90 | R405H | 1.59 ± 0.29
91 | S216V | 0.614 ± 0.25
92 | Q371M | 1.46 ± 0.33
93 | D365P | 1.56 ± 0.18
94 | M22H | 1.67 ± 0.21
95 | L252M | 0.771 ± 0.35
96 | M22P | 1.54 ± 0.16

Row | Variant | STK11 functional score
97 | S59A | 1.19 ± 0.2
98 | N412P | 1.56 ± 0.35
99 | P315M | 1.6 ± 0.19
100 | P314V | 1.16 ± 0.37
101 | Q399H | 1.13 ± 0.63
102 | A93P | 1.68 ± 0.42
103 | L285Y | -0.477 ± 0.072
104 | A406R | 1.59 ± 0.28
105 | L9M | 1.01 ± 0.32
106 | M335F | 1.35 ± 0.13
107 | K41R | 1.6 ± 0.33
108 | P275A | 0.693 ± 0.35
109 | L17G | 1.53 ± 0.25
110 | T367A | 1.39 ± 0.11
111 | Q37M | 1.17 ± 0.1
112 | L400G | 1.48 ± 0.14
113 | A206E | 0.305 ± 0.46
114 | G163V | 0.0343 ± 0.1
115 | E351W | 1.48 ± 0.16
116 | M139K | 1.41 ± 0.18
117 | L164F | -0.208 ± 0.089
118 | G242H | 0.0155 ± 0.32
119 | D352T | 1.57 ± 0.15
120 | H107A | 0.964 ± 0.11

Row | Variant | STK11 functional score
121 | T71D | 1.46 ± 0.096
122 | K82P | 1.69 ± 0.18
123 | I356N | 1.45 ± 0.62
124 | V372F | 1.12 ± 0.35
125 | R333P | 1.64 ± 0.23
126 | Q399D | 1.39 ± 0.34
127 | S232G | 0.97 ± 0.2
128 | P413I | 1.56 ± 0.28
129 | C210P | 1.18 ± 0.4
130 | P373T | 1.11 ± 0.17
131 | C134Y | 1.15 ± 0.92
132 | M289W | -0.296 ± 0.059
133 | V143C | 1.26 ± 0.22
134 | L228F | 1.34 ± 0.43
135 | G15F | 1.05 ± 0.1
136 | C151T | 0.991 ± 0.13
137 | L245V | 0.345 ± 0.093
138 | S213C | 0.758 ± 0.11
139 | P89E | 1.68 ± 0.19
140 | E407R | 1.52 ± 0.15
141 | K64C | 0.813 ± 0.53
142 | Y49P | 0.101 ± 0.089
143 | S428T | 1.56 ± 0.24
144 | T402L | 1.23 ± 0.27

Row | Variant | STK11 functional score
145 | L195R | 0.0408 ± 0.11
146 | R106G | 0.687 ± 0.11
147 | T244S | 0.613 ± 0.1
148 | L113D | -0.168 ± 0.12
149 | D358C | 1.53 ± 0.14
150 | G233V | 0.47 ± 0.11
151 | E265F | 1.08 ± 0.34
152 | G381C | 1.1 ± 0.44
153 | F204V | 1.24 ± 0.23
154 | V236I | 1.24 ± 0.96
155 | Q159V | 0.324 ± 0.074
156 | G10C | 1.4 ± 0.19
157 | T189V | 1.3 ± 0.28
158 | Y49D | 0.131 ± 0.35
159 | N109P | -0.121 ± 0.086
160 | T336W | 1.64 ± 0.15
161 | D330G | 1.23 ± 0.73
162 | A316F | 1.19 ± 0.28
163 | D229L | 1.05 ± 0.19
164 | P281W | 0.551 ± 0.072
165 | A398G | 1.1 ± 0.38
166 | Q305E | 1.02 ± 0.38
167 | L400H | 1.42 ± 0.29
